According to patent EP4663659A1 (Merck Patent GmbH, dated 2025):

Biological target: T1, mouse CD40 (mouse, UniProt P27512 20-193, limits assumed)
T1 construct: also called mCD40
T1 sequence (looked up): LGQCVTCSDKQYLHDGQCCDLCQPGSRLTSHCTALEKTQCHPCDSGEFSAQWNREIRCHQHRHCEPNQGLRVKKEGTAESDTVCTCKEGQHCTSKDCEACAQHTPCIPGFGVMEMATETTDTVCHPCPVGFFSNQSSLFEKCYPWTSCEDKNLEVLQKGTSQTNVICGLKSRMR
Assay: not described; the molecule was used as isotype control in mice

- binding result: no binding
B1: Fusion protein 1 (FP1), anti-MUC-1 × anti-CD40 bispecific binding protein (bispecific antibody, human IgG1, lambda, L234A L235A)
heavy: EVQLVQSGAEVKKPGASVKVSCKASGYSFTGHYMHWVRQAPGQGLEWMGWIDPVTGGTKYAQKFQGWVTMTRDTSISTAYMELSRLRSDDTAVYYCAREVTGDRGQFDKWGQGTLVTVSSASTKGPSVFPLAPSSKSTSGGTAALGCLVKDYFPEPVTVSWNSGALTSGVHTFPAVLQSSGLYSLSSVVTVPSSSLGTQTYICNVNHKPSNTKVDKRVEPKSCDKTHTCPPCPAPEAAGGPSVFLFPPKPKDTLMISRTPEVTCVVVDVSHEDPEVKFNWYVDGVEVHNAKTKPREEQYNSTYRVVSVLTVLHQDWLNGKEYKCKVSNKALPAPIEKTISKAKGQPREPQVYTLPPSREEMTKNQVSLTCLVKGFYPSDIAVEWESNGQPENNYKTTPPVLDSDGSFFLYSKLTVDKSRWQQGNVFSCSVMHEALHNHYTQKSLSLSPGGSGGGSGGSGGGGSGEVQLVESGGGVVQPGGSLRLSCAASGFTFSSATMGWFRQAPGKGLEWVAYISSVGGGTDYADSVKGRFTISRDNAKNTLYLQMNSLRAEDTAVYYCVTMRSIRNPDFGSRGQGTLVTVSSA
light: SYVLTQPPSVSVAPGKTARITCGGNNIGSKSVHWYQQKPGQAPVLVIYYGSNRPSGIPERFSGSNSGNTATLTISRVEAGDEADYYCQVWDSSSDWVFGGGTKLTVLGQPKAAPSVTLFPPSSEELQANKATLVCLISDFYPGAVTVAWKADSSPVKAGVETTTPSKQSNNKYAASSYLSLTPEQWKSHKSYSCQVTHEGSTVEKTVAPTECS
notes: Fully human anti-MUC-1 IgG1 with one anti-human CD40 VHH fused by a 15 aa GS linker to the C-terminus of each heavy chain; also called Anti MUC-1 × CD40; anti MUC-1 × hCD40 A02
